Sequences and labels used below:
B1: library; numbered along this chain (parent)
chain: MRKPRAAVGSGHRKQAASQEGRQKHAKNNSQAKPSACDGLARQPEEVVLQASVSSYHLFRDVAEVTAFRGSLLSWYDQEKRDLPWRRRAEDEMDLDRRAYAVWVSEVMLQQTQVATVINYYTGWMQKWPTLQDLASASLEEVNQLWAGLGYYSRGRRLQEGARKVVEELGGHMPRTAETLQQLLPGVGRYTAGAIASIAFGQATGVVDGNVARVLCRVRAIGADPSSTLVSQQLWGLAQQLVDPARPGDFNQAAMELGATVCTPQRPLCSQCPVESLCRARQRVEQEQLLASGSLSGSPDVEECAPNTGQCHLCLPPSEPWDQTLGVVNFPRKASRKPPREESSATCVLEQPGALGAQILLVQRPNSGLLAGLWEFPSVTWEPSEQLQRKALLQELQRWAGPLPATHLRHLGEVVHTFSHIKLTYQVYGLALEGQTPVTTVPPGARWLTQEEFHTAAVSTAMKKVFRVYQGQQPGTCMGSKRSQVSSPCSRKKPRMGQQVLDNFFRSHISTDAHSLNSAAQ

This note sets out measurements from the supplement of paper PMC11908140.

The variants in this data set derive from B1. The data set is described as follows: 8OG:A repair function score (normalized; synonymous = 0, nonsense = -1) (normalized log-likelihood score); higher = more repair activity (WT-like). The conditions noted are these: with 8OG:A DNA repair reporter (GFP) in HEK-293 MUTYH KO cells. How it is done: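 Saturation mutagenesis (NNN codon scan) of the MUTYH cDNA (521-aa nuclear isoform NM_001048174.1 / NP_001041639), stably expressed under doxycycline induction in HEK-293 MUTYH knockout cells. Cells were co-transfected with an 8OG:A-bearing GFP repair reporter plus mCherry and sorted 72 h later into GFP+ and GFP− bins, three replicates per tile. The Rosace log2 enrichment (GFP+ vs GFP−) was converted per tile to a normalized function score with synonymous variants centered at 0 and nonsense variants (codons 1-471) at -1; low-abundance variants were removed.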
For MRKPRAAVGSGHRKQAASQEGRQKHAKNNSQAKPSACDGLARQPEEVVLQASVSSYHLFRDVAEVTAFRGSLLSWYDQEKRDLPWRRRAEDEMDLDRRAYAVWVSEVMLQQTQVATVINYYTGWMQKWPTLQDLASASLEEVNQLWAGLGYYSRGRRLQEGYRKVVEELGGHMPRTAETLQQLLPGVGRYTAGAIASIAFGQATGVVDGNVARVLCRVRAIGADPSSTLVSQQLWGLAQQLVDPARPGDFNQAAMELGATVCTPQRPLCSQCPVESLCRARQRVEQEQLLASGSLSGSPDVEECAPNTGQCHLCLPPSEPWDQTLGVVNFPRKASRKPPREESSATCVLEQPGALGAQILLVQRPNSGLLAGLWEFPSVTWEPSEQLQRKALLQELQRWAGPLPATHLRHLGEVVHTFSHIKLTYQVYGLALEGQTPVTTVPPGARWLTQEEFHTAAVSTAMKKVFRVYQGQQPGTCMGSKRSQVSSPCSRKKPRMGQQVLDNFFRSHISTDAHSLNSAAQ [A162Y], the “8OG:A repair function score” value was -1.22.
The result for MRKPRAAVGSGHRKQAASQEGRQKHAKNNSQAKPSACDGLARQPEEVVLQASVSSYHLFRDVAEVTAFRGSLLSWYDQEKRDLPWRRRAEDEMDLDRRAYAVWVSEVMLQQTQVATVINYYTGWMQKWPTLQDLASASLEEVNQLWAGLGYYSRGRRLQEGARKVVEELGGHMPRTAETLQQLLPGVGRYTAGAIASIAFGQATGVVDGNVARVLCRVRAIGADPSSTLVSQQLWGLAQQLVDPARPGDFNQAAMELGATVCTPQRPLCSQCPVESLCRARQRVEQEQLLASGSLSGSPDVEECAPNTGQCHLCLPPSEPWDQTLGVVNFPRKASRKPPREESTATCVLEQPGALGAQILLVQRPNSGLLAGLWEFPSVTWEPSEQLQRKALLQELQRWAGPLPATHLRHLGEVVHTFSHIKLTYQVYGLALEGQTPVTTVPPGARWLTQEEFHTAAVSTAMKKVFRVYQGQQPGTCMGSKRSQVSSPCSRKKPRMGQQVLDNFFRSHISTDAHSLNSAAQ [S344T] reads 0.00415; that for MRKPRAAVGSGHRKQAASQEGRQKHAKNNSQAKPSACDGLARQPEEVVLQASVSSYHLFRDVAEVTAFRGSLLSWYDQEKRDLPWRRRAEDEMDLDRRAYAVWVSEVMLQQTQVATVINYYTGWMQKWPTLQDLASASLEEVNQLWAGLGYYSRGRRLQEGARKVVEELGGHMPRTAETLQQLLPGVGRYTAGAIHSIAFGQATGVVDGNVARVLCRVRAIGADPSSTLVSQQLWGLAQQLVDPARPGDFNQAAMELGATVCTPQRPLCSQCPVESLCRARQRVEQEQLLASGSLSGSPDVEECAPNTGQCHLCLPPSEPWDQTLGVVNFPRKASRKPPREESSATCVLEQPGALGAQILLVQRPNSGLLAGLWEFPSVTWEPSEQLQRKALLQELQRWAGPLPATHLRHLGEVVHTFSHIKLTYQVYGLALEGQTPVTTVPPGARWLTQEEFHTAAVSTAMKKVFRVYQGQQPGTCMGSKRSQVSSPCSRKKPRMGQQVLDNFFRSHISTDAHSLNSAAQ [A196H], -0.673.
The result for MRKPRAAVGSGHRKQAASQEGRQKHAKNNSQAKPSACDGLARQPEEVVLQASVSSYHLFRDVAEVTAFRGSLLSWYDQEKRILPWRRRAEDEMDLDRRAYAVWVSEVMLQQTQVATVINYYTGWMQKWPTLQDLASASLEEVNQLWAGLGYYSRGRRLQEGARKVVEELGGHMPRTAETLQQLLPGVGRYTAGAIASIAFGQATGVVDGNVARVLCRVRAIGADPSSTLVSQQLWGLAQQLVDPARPGDFNQAAMELGATVCTPQRPLCSQCPVESLCRARQRVEQEQLLASGSLSGSPDVEECAPNTGQCHLCLPPSEPWDQTLGVVNFPRKASRKPPREESSATCVLEQPGALGAQILLVQRPNSGLLAGLWEFPSVTWEPSEQLQRKALLQELQRWAGPLPATHLRHLGEVVHTFSHIKLTYQVYGLALEGQTPVTTVPPGARWLTQEEFHTAAVSTAMKKVFRVYQGQQPGTCMGSKRSQVSSPCSRKKPRMGQQVLDNFFRSHISTDAHSLNSAAQ [D82I] reads -0.0384.
Regarding MRKPRAAVGSGHRKQAASQEGRQKHAKNNSQAKPSACDGLARQPEEVVLQASVSSYHLFRDVAEVTAFRGSLLSWYDQEKRDLPWRRRAEDEMDLDRRAYAVWVSEVMLQQTQVATVINYYTGWMQKWPTLQDLASASLEEVNQLWAGLGYYSRGRRLQEGARKVVEELGGHMPRTAETLQQLLPGVGRYTAGAIASIAFGQATGVVDGNVARVLCRVRAIGADPSSTLVSQQLWGLAQQLVDPARPGDFNQAAMELGATVCTPQRPLCSQCPVESLCRARQRVEQEQLLASGSLSGSPDVEECAPNTGQCHLCLPPSEPWDQTLGVVNFPRKASRKPPREESSATCVLEQPGALGAQILLVQRPNSGLLAGLWEFPSVTWEPSEQLQRKALLQELQRWAGPLPATHLRHLGEVVHTFSHIKLTYQVYGLALEGQTPVTTVPPGARWLTQEEFHTAAVSTAMKKVFRVYQGQQPGTCMGSKRSQVSSPCSRKKPRMGQQVLDNFFRSHISTDAHSLNSIAQ [A519I], the “8OG:A repair function score” value was -0.0243.
In the case of MRKPRAAVGSGHRKQAASQEGRQKHAKNNSQAKPSACDGLARQPEEVVLQASVSSYHLFRDVAEVTAFRGSLLSWYDQEKRDLPWRRRAEDEMDLDRRAYAVWVSEVMLQQTQVATVINYYTGWMQKWPTLQDLASASLEEVNQLWAGLGYYSRGRRLQEGARKVVEELGGHMPRTAETLQQLLPGVGRYTAGAIASIAFGQATGVVDGNVARVLCRVRAIGADPSSTLVSQQLWGLAQQLVDPARPGDFNQAAMELGATVCTPQRPLCSQCPVESLCRARQRVEQEQLLASGSLSGSPDVEECAPNTGQCHLCLPPSEPWDQTLGVVNFPRKASRKPPREESSATCVLEQPGALGAQILLVQRPNSGLLAGLWEFPSVTWEPSEQLQRKALLQELQRWAGPLPATHLRHLGEVVHTFSHIKLTYQVYGLALEGQTPVTTVPPGARWLTQEEFHTAAVSTAMKCVFRVYQGQQPGTCMGSKRSQVSSPCSRKKPRMGQQVLDNFFRSHISTDAHSLNSAAQ [K464C], the “8OG:A repair function score” value was -0.49.
